This assay concerns the target modified CypA (S99T, F113G, C115M) (CypAgtm), overexpressed in E. coli and purified (UniProt P62937). Put plainly: direct fluorescence binding assay, purified CypAgtm.

The substance “alpha-cyclopentyl, sarcosine11-CsA (CpSar11-CsA) (peptide)” came in with a Kd of 9 nM.

A word on the Kd: it is the free concentration of one partner at which half of the binding sites on the other are occupied at equilibrium, for simple one-to-one binding. A lower Kd goes with higher affinity.

(Values after patent US6982082.)
